Results from patent publication US11660961B2, “Host cells and methods for producing isopentenol from mevalonate” (The Regents of the University of California, priority 2015, dated 2023).

Experiments:
E. coli = settings: intracellular accumulation in pathway II strains
[1] = In vitro hydrolysis of IPP by purified Nudix hydrolase; type: biochemical; settings: purified enzyme with IPP; up to 16 hours
Method: All metabolites are analyzed by liquid chromatography mass spectrometry (LC-MS; Agilent Technologies 1200 Series HPLC system and Agilent Technologies 6210 time-of-flight mass spectrometer) on a ZIC-HILIC column (150 mm length, 2.1-mm internal diameter, and 3.5-μm particle size). Standard chemicals (IPP and IP) are purchased from Sigma-Aldrich (USA). Metabolites are eluted isocratically with a mobile phase composition of 64% (v/v) acetonitrile containing 50 mM ammonium acetate with a flow rate of 0.15 mL/min. IPP and IP from E. coli extracts or enzyme assay are quantified via […] calibration curves ranging from 781.25 nM to 200 μM.

[2] = In vitro hydrolysis of IP to isopentenol (purified enzyme or cell lysates); type: biochemical; settings: purified NudB or lysates of cells overexpressing the phosphatase
Method: To identify IP-hydrolyzing endogenous phosphatases, single gene knockout mutants of 36 phosphatases, of which substrates are mostly mono-phosphorylated metabolites, are retrieved from the Keio collection (Baba et al., 2006). 1 mL overnight cultures from each mutant are concentrated in 0.5 mL of 50 mM Tris-HCl (pH 8.0) buffer containing 1 mM DTT and ˜50 mg of glass beads (<100 μm, Sigma-Aldrich, USA). Cells are lysed by bead-beating for 2 min at 6.0 M/s (MP biomedicals Fast Prep, USA). After centrifugation of cell lysates at 20,000 g for 10 min, clear supernatant is used for assay reaction containing 0.5 mM isopentenyl monophosphate (IP). An equal volume of ethyl acetate is added to 100 μL of assay reaction after incubating overnight at 30° C., and isopentenol is extracted for 10 min by vigorous mixing.
Coding sequences of agp, aphA, and yqaB are amplified from BW25113 genome by PCR, and they are subsequently cloned to pBbE1a vector (Lee et al., 2011) for over-expression. Expression of these three genes are induced by addition of 0.5 mM IPTG to the cell cultures, and cell lysates of each sample are prepared with three biological replicates as described above for screening of the 36 mutants. 600 μL of assay reactions containing cell lysates, 1 mM DTT are prepared and the reaction is initiated by addition of 0.5 mM IP. […] Quantification of metabolites

C[C@@](O)(CCOP(=O)(O)O)CC(=O)O [MVAP, MVA monophosphate]
toxicity of accumulated metabolite to cells (E. coli): without any significant toxicity

B1: NudB: phosphatase (Nudix hydrolase) from E. coli (protein, UniProt P0AFC0 1-150, looked up)
Dihydroneopterin triphosphate …: MKDKVYKRPVSILVVIYAQDTKRVLMLQRRDDPDFWQSVTGSVEEGETAPQAAMREVKEEVTIDVVAEQLTLIDCQRTVEFEIFSHLRHRYAPGVTRNTESWFCLALPHERQIVFTEHLAYKWLDAPAAAALTKSWSNRQAIEQFVINAA
IPP hydrolysis product [1]: produces only IP | hydrolysis of IP to isopentenol [2]: do not show the activity of hydrolyzing IP to Isopentenol
